The values below come from publication PMC4908583.

The test has as its target FPRL1 (formyl peptide receptor-like 1) inhibitory protein (FLIPr) (S. aureus) (UniProt Q2FZC0). As to the kind of experiment: BLI.

The term Kd denotes the concentration at which binding is half-saturated. Read a low Kd as tighter binding.

Chain of FPRL1 (formyl peptide receptor-like 1) inhibitory protein (FLIPr) (S. aureus) (Q2FZC0 25-133): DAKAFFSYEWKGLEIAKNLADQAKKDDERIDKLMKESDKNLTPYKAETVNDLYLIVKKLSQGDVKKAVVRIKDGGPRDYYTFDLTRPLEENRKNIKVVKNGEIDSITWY

“complement component 1q subcomponent A (C1QA) (from UniProt P02745 23-245) (natural protein)” had a Kd of 3.2 nM.
The substance “complement component 1q subcomponent C (C1QC) (from UniProt P02747 29-245) (natural protein)” came in with a Kd of 9.9 nM.
Consider “complement component 1q subcomponent B (C1QB) (from UniProt P02746 28-253) (natural protein)”, for which the Kd worked out at 2.1 nM.
